# Assay results as given in patent publication US7435549 (MICROMET, dated 2008).
# B1: transmembrane 17-1A antigen (complete amino acid sequence, GA733-2) on transfected CHO cells (other, UniProt P16422 24-314, looked up)
# chain: QEECVCENYKLAVNCFVNNNRQCQCTSVGAQNTVICSKLAAKCLVMKAEMNGSKLGRRAKPEGALQNNDGLYDPDCDESGLFKAKQCNGTSMCWCVNTAGVRRTDKDTEITCSERVRTYWIIIELKHKAREKPYDSKSLRTALQKEITTRYQLDPKFITSILYENNVITIDLVQNSSQKTQNDVDIADVAYYFEKDVKGESLFHSKKMDLTVNGEQLDLDPGQTLIYYVDEKAPEFSMQGLKAGVIAVIVVVVIAVVAGIVVLVISRKKRMAKYEKAEIKEMGEMHRELNA
# notes: whole, on cells; also called 17-1A-transfected CHO-cells
# How the values were obtained:
# [1] = molecular target: T1, bifunctional CD80-anti-17-1A scFv construct, clone 5-10 (human, UniProt P33681 35-242); experiment: flow cytometry on 17-1A-transfected CHO cells, undiluted supernatant, anti-CD80 detection
# T1 construct: extracellular domain; CHO culture supernatant; also called pEHDFR+CTI+CD80+scFv anti 17-1A 5-10; CD80-scFv-construct 5-10
# Procedure: (§1) FIG. 9.1: Binding studies of 17-1A specific bifunctional CD80-scFv-constructs on 17-1A transfected (filled lines) and untransfected CHO cells (broken lines) detected by flow cytometry. 5 ×10^5 cells were incubated in 50 μl undiluted cell-culture supernatant containing the corresponding bifunctional construct. Bound bifunctional CD80-scFv-constructs were detected by a monoclonal anti-CD80 antibody (Immunotech. Cat. No.: 1449) diluted 1:20 in 50 μl PBS. Incubation conditions were the same as described in FIG. 8.5. Bound CD80-antibody was finally detected by a fluorescein conjugated polyclonal Goat Anti-Mouse IgG+IgM (H+L) antibody diluted 1:100 in PBS. Incubation was again carried out for 30 minutes on ice. For the fixation of fluorescein-labeled cells 1% paraformaldehyd in PBS was used. As first negative control untransfected CHO was used. The second negative control contained 17-1A-transfected cells that were incubated with PBS instead of bifunctional CD80-scFv-constructs. Cells were analysed by flow cytometry on a FACS scan (Becton Dickenson).
# (§2) For this purpose adherent untransfected and 17-1A-transfected CHO-cells were detached using PBS containing 0,05% Trypsine, respectively. 5 ×10^5 cells were incubated for 30 minutes on ice in 50 µl culture supernatant containing the corresponding bifunctional construct undiluted (FIG. 9.1). Bound bifunctional CD80-scFv-constructs were detected by a monoclonal anti-CD80 antibody (Immunotech. Cat. No: 1449) diluted 1:20 in 50 µl PBS. Incubation conditions were the same as above. Bound CD80-antibody was finally detected by a fluorescein conjugated polyclonal Goat Anti-Mouse IgG+IgM (H+L) antibody diluted 1:100 in PBS. Incubation was again carried out for 30 minutes on ice. For the fixation of fluorescein-labeled cells 1% paraformaldehyd in PBS was used.
# [2] = molecular target: T2, bifunctional CD80-anti-17-1A scFv construct, clone 4-7 (human, UniProt P33681 35-242); experiment: as above
# T2 construct: extracellular domain; CHO culture supernatant; also called pEFDHFR+CTI+CD80+scFv anti 17-1A 4-7; CD80-scFv-construct 4-7
# Procedure: as §1, §2
# [3] = molecular target: T3, bifunctional CD80-anti-17-1A scFv construct, clone 3-5 (human, UniProt P33681 35-242); experiment: as above
# T3 construct: extracellular domain; CHO culture supernatant; also called pEF-DHFR+CTI+CD80+scFv 17-1A clone 3-5; CD80-scFv-construct 3-5
# Procedure: as §1, §2
# [4] = molecular target: T4, bifunctional CD80-anti-17-1A scFv construct, clone 3-1 (human, UniProt P33681 35-242); experiment: as above
# T4 construct: extracellular domain; CHO culture supernatant; also called pEF-DHFR+CTI+CD80+scFv 17-1A clone 3-1; CD80-scFv-construct 3-1
# Procedure: as §1, §2
# [5] = molecular target: T5, bifunctional CD80-anti-17-1A scFv construct, clone 5-3 (human, UniProt P33681 35-242); experiment: as above
# T5 construct: extracellular domain; CHO culture supernatant; also called pEFDHFR+CTI+CD80+scFv anti 17-1A 5-3; CD80-scFv-construct 5-3
# Procedure: as §1, §2
# [6] = molecular target: T6, bifunctional CD80-anti-17-1A scFv construct, clone 5-13 (human, UniProt P33681 35-242); experiment: as above
# T6 construct: extracellular domain; CHO culture supernatant; also called pEF-DHFR+CTI+CD80+scFv 17-1A clone 5-13; CD80-scFv-construct 5-13
# Procedure: as §1, §2
# [7] = molecular target: T7, bifunctional CD80-anti-17-1A scFv construct, clone 4-1 (human, UniProt P33681 35-242); experiment: as above
# T7 construct: extracellular domain; CHO culture supernatant; also called pEF-DHFR+CTI+CD80+scFv 17-1A clone 4-1; CD80-scFv-construct 4-1
# Procedure: as §1, §2
# [8] = molecular target: T8, bifunctional CD80-anti-17-1A scFv construct, clone 4-4 (human, UniProt P33681 35-242); experiment: as above
# T8 construct: extracellular domain; CHO culture supernatant; also called pEF-DHFR+CTI+CD80+scFv 17-1A clone 4-4; CD80-scFv-construct 4-4
# Procedure: as §1, §2
# [9] = molecular target: T9, CD80-VD4.5VK8 scFv(VH/VL) construct with short (Gly4Ser1)1 linker (human, UniProt P33681 35-242); experiment: flow cytometry on 17-1A-transfected CHO cells, anti-CD80 detection
# T9 construct: extracellular domain; Tested as CHO culture supernatant; also called bifunctional CD80-VD4.5VK8-scFv-construct; pEF-DHFR+CTI+CD80+scFv VD4.5VK8
# Procedure: as §1, with “The second negative control contained 17-1A-transfected cells that were incubated with PBS instead of bifunctional CD80-scFv-constructs.” left out
# For this purpose adherent untransfected and 17-1A-transfected CHO-cells were detached using PBS containing 0,05% Trypsine, respectively. […] Bound bifunctional CD80-scFv-constructs were detected by a monoclonal anti-CD80 antibody (Immunotech. Cat. No: 1449) diluted 1:20 in 50 µl PBS. […] Bound CD80-antibody was finally detected by a fluorescein conjugated polyclonal Goat Anti-Mouse IgG+IgM (H+L) antibody diluted 1:100 in PBS. […]
binder,measurement,setting,value
B1,binding result,[1],binds
same,binding result,[2],binds
same,binding result,[3],binds
same,binding result,[4],binds
same,binding result,[5],binds
same,binding result,[6],binds
same,binding result,[7],binds
same,binding result,[8],binds
same,binding result,[9],no binding (tested: undiluted culture supernatant)
